This note sets out measurements from paper PMC11006857, “Structure-guided functional suppression of AML-associated DNMT3A hotspot mutations” (Nature Communications, 2024).

The target of series [1] is DNMT3A^R882H/N879A protein (as used for size-exclusion chromatography) (human). Put plainly: SEC; Superose 6 Increase 10/300 GL, 100 µL of 3 mg/mL protein, 4 °C, 20 mM Hepes pH 7.2, 250 mM NaCl, 5% glycerol, 5 mM DTT; elution volume against molecular weight standards.
Series [2] concerns the molecule itself. Described as above.
Series [3] concerns the molecule itself. Put plainly: crystal structure; DNMT3A MTase domain with S-adenosyl-homocysteine; sitting drop vapor diffusion, 0.2-0.4 M potassium sodium tartrate, 4 °C; homotetramer via RD and FF interfaces.

As usually defined, the stoichiometry N is a count of units in the complex or per binding partner. For “DNMT3A^R882H/N879A protein (as used for size-exclusion chromatography) (domain or fragment)”, in series [1], the stoichiometry N is 4.

B1: MBP-tagged DNMT3A MTase domain R676K (domain or fragment, human, UniProt Q9Y6K1 628-912, looked up)
chain: AEKRKPIRVLSLFDGIATGLLVLKDLGIQVDRYIASEVCEDSITVGMVKHQGKIMYVGDVRSVTQKHIQEWGPFDLVIGGSPCNDLSIVNPARKGLYEGTGRLFFEFYRLLHDARPKEGDDRPFFWLFENVVAMGVSDKRDISRFLESNPVMIDAKEVSAAHRARYFWGNLPGMNRPLASTVNDKLELQECLEHGRIAKFSKVRTITTRSNSIKQGKDQHFPVFMNEKEDILWCTEMERVFGFPVHYTDVSNMSRLARQRLLGRSWSVPVIRHLFAPLKEYFACV
notes: human DNMT3A MTase domain, residues 628-912; source: E. coli BL21(DE3) RIL, purified; not shown: MBP, N-terminal, kept
Regarding B1, the binding result in series [2] is recorded as “binds”.

B2: MBP-tagged DNMT3A MTase domain M674T/R676K (domain or fragment, human, UniProt Q9Y6K1 628-912, looked up)
chain: AEKRKPIRVLSLFDGIATGLLVLKDLGIQVDRYIASEVCEDSITVGTVKHQGKIMYVGDVRSVTQKHIQEWGPFDLVIGGSPCNDLSIVNPARKGLYEGTGRLFFEFYRLLHDARPKEGDDRPFFWLFENVVAMGVSDKRDISRFLESNPVMIDAKEVSAAHRARYFWGNLPGMNRPLASTVNDKLELQECLEHGRIAKFSKVRTITTRSNSIKQGKDQHFPVFMNEKEDILWCTEMERVFGFPVHYTDVSNMSRLARQRLLGRSWSVPVIRHLFAPLKEYFACV
notes: as for B1
As for B2, the binding result in series [2] is “binds”.

B3: DNMT3A^R882H/N879A (crystallised form) (domain or fragment, human)
chain: AEKRKPIRVLSLFDGIATGLLVLKDLGIQVDRYIASEVCEDSITVGMVRHQGKIMYVGDVRSVTQKHIQEWGPFDLVIGGSPCNDLSIVNPARKGLYEGTGRLFFEFYRLLHDARPKEGDDRPFFWLFENVVAMGVSDKRDISRFLESNPVMIDAKEVSAAHRARYFWGNLPGMNRPLASTVNDKLELQECLEHGRIAKFSKVRTITTRSNSIKQGKDQHFPVFMNEKEDILWCTEMERVFGFPVHYTDVSAMSHLARQRLLGRSWSVPVIRHLFAPLKEYFACV
notes: human DNMT3A; the abstract speaks of crystal structures of the methyltransferase domain; The crystallisation methods name only R882H/R676K and R882C/R676K as mutants; probably residues 628-912 like the others; also called DNMT3A^N879A/R882H; N879A/R882H-mutated DNMT3A; source: E. coli BL21(DE3) RIL, purified
For the molecule B3, in series [3], the “stoichiometry N” value came out at 4.
